Data on one molecule can be found in patent US7803382B2, “Method for inducing immune response to NY-CO-58” (Ludwig Institute for Cancer Research Ltd., priority 2001, dated 2010).

This assay has as its system sera from colon cancer patients. Briefly: Spot assay: reactivity of serologically defined colon cancer antigens with colon cancer patient sera. Type of assay: binding, human. The following applies: reactive sera/sera tested; includes autologous where applicable; sera 1:200. The method, then:
Serum samples from patients with colon cancer were screened using a modification of the plaque assay, termed a spot assay. In this method, 80×120 mm nitrocellulose membranes were precoated with a film of NZY/0.7% Agarose/2.5 mM IPTG and placed on a reservoir layer of NZY/0.7% Agarose in a 86×128 mm Omni Tray (Nalge Nunc International Corp., Naperville, Ill.). Approximately 1.0×10^5 pfU of monoclonal phage encoding individual serologically defined colon cancer antigens, in a volume of 20 μl, were mixed with 20 μl of exponentially growing E. coli XL-1 Blue MRF and spotted (0.7-μl aliquots) on the precoated nitrocellulose membranes. Membranes were incubated for 15 hours at 37° C. A total of 75 different serologically defined colon cancer antigens were spotted in duplicate per nitrocellulose membrane. The agarose film was then removed from the membrane and the filters were processed for reactivity with individual serum samples (1:200 dilution), as described in Scanlan, et al., Int. J. Cancer 76:652-658 (1998) and Scanlan, et al., Int. J. Cancer 83:456-64, (1999).

B1: TNKL (BC-203): serologically defined colon cancer antigen, protein SEQ ID NO:26 (protein, listed as Homo sapiens)
chain: QGAQRGARVGAAMGLRRSGDSREPSGPGPERVFSGGPRPPARGAGAPAPVAGAVAGCGGGQDHVGSPLRRRGSGLRDAAAEAVEPAARELFEACRNGDVERVKRLVTPEKVNSRDTAGRKSTPLHFAAGFGRKDVVEYLLQNGANVQARDDGGLIPLHNACSFGHAEVVNLLLRHGADPNARDNWNYTPLHEAAIKGKIDVCIVLLQHGAEPTIRNTDGRTALDLADPSAKAVLTGEYKKDELLESARSGNEEKMMALLTPLNVNCHASDGRKSTPLHLAAGYNRVKIVQLLLQHGADVHAKDKGDLVPLHNACSYGHYEVTELLVKHGACVNAMDLWQFTPLHEAASKNRVEVCSLLLSYGADPTLLNCHNKSAIDLAPTPQLKERLAYEFKGHSLLQAAREADVTRIKKHLSLEMVNFKHPQTHETALHCAAASPYPKRKQICELLLRKGANINEKTKEFLTPLHVASEKAHNDVVEVVVKHEAKVNALDNLGQTSLHRAAYCGHLQTCRLLLSYGCDPNIISLQGFTALQMGNENVQQLLQEGISLGNSEADRQLLEAAKAGDVETVKKLCTVQSVNCRDIEGRQSTPLHFAAGYNRVSVVEYLLQHGADVHAKDKGGLVPLHNACSYGHYEVAELLVKHGAVVNVADLWKFTPLHEAAAKGKYEICKLLLQHGADPTKKNRDGNTPLDLVKDGDTDIQDLLRGDAALLDAAKKGCLARVKKLSSPDNVNCRDTQGRHSTPLHLAAGYNNLEVAEYLLQHGADVNAQDKGGLIPLHNAASYGHVDVAALLIKYNACVNATDKWAFTPLHEAAQKGRTQLCALLLAHGADPTLKNQEGQTPLDLVSADDVSALLTAAMPPSALPSCYKPQVLNGVRSPGATADALSSGPSSPSSLSAASSLDNLSGSFSELSSVVSSSGTEGASSLEKKEVPGVDFSITQFVRNLGLEHLMDIFEREQITLDVLVEMGHKELKEIGINAYGHRHKLIKGVERLISGQQGLNPYLTLNTSGSGTILIDLSPDDKEFQSVEEEMQSTVREHRDGGHAGGIFNRYNILKIQKVCNKKLWERYTHRRKEVSEENHNHANERMLFHGSPFVNAIIHKGFDERHAYIGGMFGAGIYFAENSSKSNQYVYGIGGGTGVQFTKTDLVTFATAAALLPGNLGKVFPAVQCNENGTSPPGHHSVTGRPSVNGLALAEYVIYRGEQAYPEYLITYQIMRPEGMVDG
For the molecule B1, the “Reactivity of individual antigens” value is on record as 6/75.
